Measurements as given in the supplement of paper PMC10567573.

B1: CHIT1 (parent)
chain: CSWKGATKQRIQDQKVPYIFRDNQ
B2: SMARCE1 (parent)
chain: YHNSPAYLAYINAKSRAEAALEEE

Variants of: B1
Assay: protein stability index of a GFP-peptide fusion (GPS, HEK-293T) (PSI 1-6); higher = more stable
Conditions: c terminus: a fixed tail appended
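Note: lentivirally expressed fusions sorted by FACS into six bins by GFP to DsRed ratio, PSI derived from sequencing read proportions per bin multiplied by bin number.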

Variant	protein stability index
CSWKGATKQRIQDQKVPNIFRDNQ	3.4
CSWKGATKQRIQDQKVPWIFRDNQ	2.19
CSWKGATKQRIQDQKVPAIFRDNQ	2.88
CSWKGATKQRIQDQKVPCIFRDNQ	2.7
CSWKGATKQRIPDQKVPYIFRDNQ	2.78
CSWKGATKQRILDQKVPYIFRDNQ	2.18
CSWKGATKQRIHDQKVPYIFRDNQ	2.09
CSWKGATKQRIRDQKVPYIFRDNQ	1.83
CSWKGATKQRISDQKVPYIFRDNQ	2.6
CSWKGATKQRIDDQKVPYIFRDNQ	3.08
CSWKGALKQRIQDQKVPYIFRDNQ	2.52
CSWKGAEKQRIQDQKVPYIFRDNQ	3.41
CSWKGAMKQRIQDQKVPYIFRDNQ	2.28
CSWKGAWKQRIQDQKVPYIFRDNQ	1.12
CSWKGACKQRIQDQKVPYIFRDNQ	2.29
CSWKGAGKQRIQDQKVPYIFRDNQ	2.77
CSWKGAFKQRIQDQKVPYIFRDNQ	2.68
CSWKGAIKQRIQDQKVPYIFRDNQ	2.3
CSWKGAYKQRIQDQKVPYIFRDNQ	3.94
CSWKGAAKQRIQDQKVPYIFRDNQ	2.51
CSWKGATKQRIQDQKVPYIFNDNQ	3.09
CSWKGATKQRIQDQKVPYIFKDNQ	2.83
CSWKGATKQRIQDQKVPYIFVDNQ	1.96
CSWKGATKQRIQDQKVPYIFDDNQ	3.49
CSWKGATKQRIQDQKVPYIFIDNQ	2.18
CSWKGATKQRIQDQKVPYIFMDNQ	2.44

Variant	protein stability index
CSWKGATKQRIQDQKVEYIFRDNQ	2.3
CSWKGATKQRIQDQKVQYIFRDNQ	1.98
CSWKGATKQRIQDQKVNYIFRDNQ	2.51
CSWKGATKQRIQDQKVCYIFRDNQ	2.75
CSWKGATKQRIQDQKVKYIFRDNQ	2.8
CSWKGATKQRIQDQKVIYIFRDNQ	1.61
CSWKGATKQRIQDQKVPYIFRDNK	3.16
CSWKGATKQRIQDQKVPYIFRDND	3.34
CSWKGATKQRIQDQKVPYIFRDNC	3.02
CSWKGATKQRIQDQKVPYISRDNQ	3.13
CSWKGATKQRIQDQKVPYIKRDNQ	3.17
CSWKGATKQRIQDQKVPYIIRDNQ	2
CSWKGATKQRIQDQKVPYIARDNQ	3.11
CSWKGATKQRIQDQKVPYIPRDNQ	3.13
CSWKGATKQRIQDQKVPYIQRDNQ	3.61
DSWKGATKQRIQDQKVPYIFRDNQ	3.26
TSWKGATKQRIQDQKVPYIFRDNQ	2.79
FSWKGATKQRIQDQKVPYIFRDNQ	1.75
MSWKGATKQRIQDQKVPYIFRDNQ	2.89
ASWKGATKQRIQDQKVPYIFRDNQ	3.17
GSWKGATKQRIQDQKVPYIFRDNQ	3.47
ESWKGATKQRIQDQKVPYIFRDNQ	3.13
RSWKGATKQRIQDQKVPYIFRDNQ	2.86
CSWKGATKQRIQDQKVPYNFRDNQ	3.17
CSWKGATKQRIQDQKVPYAFRDNQ	3.19
CSWKGATKKRIQDQKVPYIFRDNQ	2.44

Variant	protein stability index
CSWKGATKERIQDQKVPYIFRDNQ	2.42
CSWKGATKGRIQDQKVPYIFRDNQ	2.88
CSWKGATKTRIQDQKVPYIFRDNQ	2.8
CSWKGATKQRIQDQPVPYIFRDNQ	3.22
CSWKGATKQRIQDQYVPYIFRDNQ	3.73
CSWKGATKQRIQDQSVPYIFRDNQ	2.29
CSWKGATKQRIQDQNVPYIFRDNQ	2.75
CSWKGATKQRIQDQCVPYIFRDNQ	2.99
CSWNGATKQRIQDQKVPYIFRDNQ	2.5
CSWLGATKQRIQDQKVPYIFRDNQ	1.84
CSWAGATKQRIQDQKVPYIFRDNQ	1.94
CSWDGATKQRIQDQKVPYIFRDNQ	2.7
CSWKGATKQIIQDQKVPYIFRDNQ	1.64
CSWKGATKQQIQDQKVPYIFRDNQ	2.8
CSWKGATKQVIQDQKVPYIFRDNQ	2.43
CSWKGATKQYIQDQKVPYIFRDNQ	2.54
CSWKGATKQKIQDQKVPYIFRDNQ	2.67
CSWKGATKQTIQDQKVPYIFRDNQ	3.68
CSWKGATKQHIQDQKVPYIFRDNQ	2.94
CSWKGATKQEIQDQKVPYIFRDNQ	3.87
CSWKGATKQPIQDQKVPYIFRDNQ	2.47
CSWKGATKQDIQDQKVPYIFRDNQ	2.71
CSWKGATKQRIQDQKVPYIFRFNQ	1.35
CSWKGATKQRIQDQKVPYIFRQNQ	2.33
CSWKGATKQRIQDQKVPYIFRMNQ	2.43
CSWKGATKQRIQDQKVPYIFRANQ	2.57

Variant	protein stability index
CSWKGATKQRIQDQKVPYIFRTNQ	2.18
CSWKGATKQRIQDQKVPYIFRCNQ	1.66
CSWKGATKQRIQDQKVPYIFRVNQ	1.83
CSFKGATKQRIQDQKVPYIFRDNQ	2.78
CSAKGATKQRIQDQKVPYIFRDNQ	2.78
CSRKGATKQRIQDQKVPYIFRDNQ	3.71
CSDKGATKQRIQDQKVPYIFRDNQ	3.73
CSYKGATKQRIQDQKVPYIFRDNQ	3.04
CWWKGATKQRIQDQKVPYIFRDNQ	2.69
CVWKGATKQRIQDQKVPYIFRDNQ	1.85
CQWKGATKQRIQDQKVPYIFRDNQ	1.93
CGWKGATKQRIQDQKVPYIFRDNQ	2.07
CCWKGATKQRIQDQKVPYIFRDNQ	2.06
CHWKGATKQRIQDQKVPYIFRDNQ	2.42
CYWKGATKQRIQDQKVPYIFRDNQ	1.49
CLWKGATKQRIQDQKVPYIFRDNQ	2.18
CFWKGATKQRIQDQKVPYIFRDNQ	3.22
CRWKGATKQRIQDQKVPYIFRDNQ	2
CSWKGHTKQRIQDQKVPYIFRDNQ	2.51
CSWKGTTKQRIQDQKVPYIFRDNQ	2.27
CSWKGKTKQRIQDQKVPYIFRDNQ	2.23
CSWKGVTKQRIQDQKVPYIFRDNQ	2.25
CSWKGQTKQRIQDQKVPYIFRDNQ	2.54
CSWKGATKQRIQDDKVPYIFRDNQ	2.81
CSWKGATKQRIQDYKVPYIFRDNQ	1.92
CSWKGATKQRIQDFKVPYIFRDNQ	2.47

Variant	protein stability index
CSWKGATKQRIQDKKVPYIFRDNQ	1.87
CSWKGATKQRIQDVKVPYIFRDNQ	1.94
CSWKGATKQRIQDGKVPYIFRDNQ	2.79
CSWKGATKQRIQDWKVPYIFRDNQ	1.99
CSWKGATKQRIQDMKVPYIFRDNQ	2.21
CSWKGATLQRIQDQKVPYIFRDNQ	2.77
CSWKGATFQRIQDQKVPYIFRDNQ	2.21
CSWKGATHQRIQDQKVPYIFRDNQ	2.53
CSWKGATCQRIQDQKVPYIFRDNQ	1.76
CSWKGATRQRIQDQKVPYIFRDNQ	2.81
CSWKGATWQRIQDQKVPYIFRDNQ	2.03
CSWKGATVQRIQDQKVPYIFRDNQ	3.23
CSWKGATYQRIQDQKVPYIFRDNQ	2.4
CSWKGATAQRIQDQKVPYIFRDNQ	2.58
CSWKGATGQRIQDQKVPYIFRDNQ	2.95
CSWKGATQQRIQDQKVPYIFRDNQ	2.12
CSWKGATKQRIQDQKPPYIFRDNQ	3.31
CSWKGATKQRIQDQKDPYIFRDNQ	2.86
CSWKGATKQRIQDQKNPYIFRDNQ	2.82
CSWKGATKQRIQDQKCPYIFRDNQ	3.13
CSWKGATKQRIQDQKLPYIFRDNQ	2.55
CSWKGATKQRIQDQKYPYIFRDNQ	1.95
CSWKGATKQRIQHQKVPYIFRDNQ	1.78
CSWKGATKQRIQTQKVPYIFRDNQ	2.56
CSWKGATKQRIQEQKVPYIFRDNQ	2.52
CSWKGATKQRIQWQKVPYIFRDNQ	1.25

Variant	protein stability index
CSWKGATKQRIQYQKVPYIFRDNQ	1.83
CSWKGATKQRIQCQKVPYIFRDNQ	2.47
CSWKGATKQRIQVQKVPYIFRDNQ	2.42
CSWKGATKQRIQGQKVPYIFRDNQ	2.15
CSWKGATKQRIQLQKVPYIFRDNQ	1.75
CSWKWATKQRIQDQKVPYIFRDNQ	3.45
CSWKKATKQRIQDQKVPYIFRDNQ	2.79
CSWKLATKQRIQDQKVPYIFRDNQ	2.77
CSWKDATKQRIQDQKVPYIFRDNQ	2.67
CSWKGATKQRIQDQKVPYIFRDFQ	2.04
CSWKGATKQRIQDQKVPYIFRDPQ	2.38
CSWKGATKQRIQDQKVPYIFRDAQ	2.76
CSWKGATKQRIQDQKVPYIFRDCQ	1.91
CSWKGATKQRIQDQKVPYIFRDDQ	3.53
CSWKGATKQRIQDQKVPYIFRDQQ	2.6
CSWKGATKQRIQDQKVPYIFRDSQ	2.2
CSWKGATKQRIQDQKVPYIFRDEQ	2.54
CSWKGATKQRRQDQKVPYIFRDNQ	3.15
CSWKGATKQRNQDQKVPYIFRDNQ	2.56
CSWKGATKQRGQDQKVPYIFRDNQ	2.32
CSWKGATKQRFQDQKVPYIFRDNQ	2.44
CSWKGATKQRVQDQKVPYIFRDNQ	2.98

Variants of: B2
Assay: as above
Conditions: c terminus: a fixed tail appended

Variant	protein stability index
YHNSPAYLAYINAKSRAEAALEFE	2.31
YHNSPAYLAYINAKSRAEAALEIE	2.79
YHNSPAYLAYINAKSRAEAALERE	1.82
YHNSPAYLAYINAKSRAEAALEPE	2.58
YHNSPAYLAYINAKSRAEAALETE	3.01
YHNSPAYLAYINAKSRAEAALESE	1.54
YHNSPAYLAYINAKSRAEAALENE	1.57
YHNSPAYLAYINAKSRAEAALEYE	1.58
YHNSPAYLAYINAKSRAEAALEWE	1.81
YHNSPAYLAYINAKSRAEAALEVE	2.44
YHNSPAYLAYINAKSRAEAALEDE	1.54
YHNSPAYLAYINAKSRAEAALELE	1.59
YHNSPAYLAYINAKSRAEAALEHE	2.13
YHNSPAYLAYINAKSRAEAALEGE	3.34
YHNSPAYLAYINAKSRAEAALEQE	1.59
YHNSPAYLAYINAKSRAEAALEME	1.52
YHNSPAYLAYINAKSRAEAALEKE	2.05
YHNSPAYLAYINAKSRAEAALEEH	1.91

Variant	protein stability index
YHNSPAYLAYINAKSRAEAALEEN	2.47
YHNSPAYLAYINAKSRAEAALEER	2.71
YHNSPAYLAYINAKSRAEAALEEV	2.19
YHNSPAYLAYINAKSRAEAALEET	2.17
YHNSPAYLAYINAKSRAEAALEEI	1.88
YHNSPAYLAYINAKSRAEAALEEL	1.56
YHNSPAYLAYINAKSRAEAALEEF	2.59
YHNSPAYLAYINAKSRAEAALEEP	1.45
YHNSPAYLAYINAKSRAEAALEEG	1.95
YHNSPAYLAYINAKSRAEAALEED	2.3
YHNSPAYLAYINAKSRAEAALEEY	1.71
YHNSPAYLAYINAKSRAEAALEEQ	3.45
YHNSPAYLAYINAKSRAEAALEEW	1.63
YHNSPAYLAYINAKSRAEAALEEC	2.38
YHNSPAYLAYINAKSRAEAALEES	3.47
YHNSPAYLAYINAKSRAEAALEEA	2.12
YHNSPAYLAYINAKSRAEAALEEK	2.91
YHNSPAYLAYINAKSRAEAALEEM	2.55
